# From the RNAGym collection of RNA variant scans (doi:10.1073/pnas.2313332121)
# Variants at the floor of the assay were thinned out.
# B1: TPR 5TU (parent)
# chain: GGAUCUUCUCGAUCUAACAAAAAAGACAAAUCUGCCACAAAGCUUGAGAGCAUCUUCGGAUGCAGAGGCGGCAGCCUUCGGUGGCGCGAUAGCGCCAACGUUCUCAACUAUGACACGCAAAACGCGUGCUCCGUUGAAUGGAGUUUAUCAUG
# Variants of: B1
# Assay: polymerase ribozyme fitness, log enrichment relative to wild type (log ratio); higher = more active; in vitro selection for triplet polymerase activity
# Summary of the method: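 A heterodimeric triplet polymerase ribozyme had each of its subunits mutagenized by PCR into a library, which was transcribed. One round of in vitro selection, done in triplicate, annealed each library with a biotinylated primer, its partner subunit and triplets, then incubated it frozen at −7 °C before gel excision of extended constructs, streptavidin-bead capture and RT-PCR. Fitness is the logarithm of genotype enrichment relative to wild-type enrichment, based on Illumina sequencing of inputs and outputs and inverse-variance-weighted replicate averages. A base-2 logarithm is used, and genotypes were kept only with ≥10 input reads and ≥1 read per output.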
row,Variant,polymerase ribozyme fitness (log ratio)
1,C63U C96U A150G,-1.22
2,G62U,-0.546
3,G65C G68A G83A A115U G140A,≤ -4.2
4,G67C G92A C96U C118U,≤ -4.2
5,A64G C75G G84U U127A A142U,≤ -4.2
6,C63U C103G U146G,-2.3
7,G62C C123A,-1.69
8,G68A G74C G88A,≤ -4.2
9,G68A U77A G81A U111A G126U,≤ -4.2
10,A64G A91C,≤ -4.2
11,G68U U101C,-4.07
12,G68U C95U C96U A113C G124U,≤ -4.2
13,C63G U78A C79U C85U A98G A106U U134C A142G U146A,≤ -4.2
14,G68U G128U,≤ -4.2
15,A64G G80U C85U C93U G94U C103U,-4.18
16,G65A C75A G81U G94A C105U G140U,-3.7
17,G67A A98U U139C U148A,≤ -4.2
18,G67C G94A U139A A142U,≤ -4.2
19,C69G A73C U77C G84A C118U C131A U139G,≤ -4.2
20,G68A A122G G133C,≤ -4.2
21,G68A C85U,-3.48
22,G68A C85G,≤ -4.2
23,C69A G83A G143U,-3.59
24,G68A U139C,≤ -4.2

row,Variant,polymerase ribozyme fitness (log ratio)
1,G68C G83A,≤ -4.2
2,G68A A106C A120G A138C,≤ -4.2
3,A64C A107C C131A,≤ -4.2
4,A66G C85U U111G U146A,≤ -4.2
5,G62U A115C,-1.97
6,G65C G71U,≤ -4.2
7,G68A C69G G80A U104G,≤ -4.2
8,C69A G83C U101G,≤ -4.2
9,G68A G92C,-4.16
10,C69A C76U A98U C125U,-1.9
11,A66G G92C C95A C103U C108G U151C,≤ -4.2
12,G68A G86A C87G,≤ -4.2
13,G68C,-3.92
14,G68U,-3.71
15,G68A,-3.29
16,G65A A97G C99G,-3.75
17,G67C G83A C123G,≤ -4.2
18,G67C G88C C116G A122U G128U U144A,≤ -4.2
19,A66C G71C G84U,≤ -4.2
20,A66G A106G U139A,≤ -4.2
21,A66C G84A C87U,≤ -4.2
22,C69A A73G,-2.98
23,A66C G74U G81C C87A C118A G124A,≤ -4.2
24,C63U G81C U82C U102G U104A C108A A150C,≤ -4.2

row,Variant,polymerase ribozyme fitness (log ratio)
1,G67A C87U A107U C125G G126C,-4.14
2,G67C C93G C99G A137U U146A,≤ -4.2
3,G67U G83U U101G,≤ -4.2
4,A66C C76U U82G C85G C125G,≤ -4.2
5,G68C U104G C105G C118U G133C,≤ -4.2
6,G67A A91G U135G C149U,≤ -4.2
7,G62C G94C,-2.03
8,G67U C85G,≤ -4.2
9,C69A G70A,-4.19
10,A66G C93A C95A C96U C116U,≤ -4.2
11,C69A G81U G84U,≤ -4.2
12,A66G G83U,-3.62
13,C63G A91G,-2.57
14,C63U C85U C95A,-0.621
15,C63A A64C,-1.46
16,A64C G83C A89U U134A G141A,≤ -4.2
17,A64C C85A,≤ -4.2
18,G68A G88C A110C U135C,≤ -4.2
19,A66U C87A A106U G143C,≤ -4.2
20,G62U G86C C95G C132U,≤ -4.2
21,G67C G68A C85U C99A A115U,≤ -4.2
22,C63A G117U A119C,0.257
23,A64G U82G A91U C95U A110U U111G,≤ -4.2
24,A64G G86U,≤ -4.2

row,Variant,polymerase ribozyme fitness (log ratio)
1,C69A G83A A121C,-1.84
2,G68A G80A G86U U90G A91G G136A A142G,≤ -4.2
3,C63A A147C,0.331
4,A64G G68C A142G G143A,≤ -4.2
5,C63A C76G C85U C96U A97G C116G,≤ -4.2
6,C63A G92C,-1.03
7,G67C G84A U139A G140U,≤ -4.2
8,A64C A115U A142U G143U,≤ -4.2
9,C63U A91U C93G U139G,≤ -4.2
10,G68A G88A C96G C118A G126A,-4.16
11,C63A A64C C72U A89U U130G,≤ -4.2
12,C63G U102G C105U,≤ -4.2
13,G68A C93U A98U G117U,≤ -4.2
14,C63G C76U,0.0444
15,A64G C93G,-4.05
16,A66G C69A G84U A138U,≤ -4.2
17,G68A C87U C114A U144C,-4.11
18,G67C C69G A91U,≤ -4.2
19,G67C C93U A107C C125G,≤ -4.2
20,G68C C85U,-3.93
21,C63U G83C U102A A142G A150C,≤ -4.2
22,G65U A66C U77A A147C,≤ -4.2
23,C63U C85G U127A U139A U145C,≤ -4.2
24,C63U U102A U104G G124A,-2.05

row,Variant,polymerase ribozyme fitness (log ratio)
1,G68U C79A U102G A119G,≤ -4.2
2,G67C G83A,≤ -4.2
3,A64G C99A G143A,≤ -4.2
4,C69A A73C G86A A119C U145A,≤ -4.2
5,G67C G80C G92A C103A C118G G133A,≤ -4.2
6,C63U U104G,0.272
7,A64G G67U G84U C103A G112C A115U U146C,≤ -4.2
8,G62C G83A,-2.25
9,G62C C95U C96A,-3.59
10,C63G A73G,-0.51
11,C69A C75U A106G A120G,-2.33
12,C69G,-1.51
13,C69A,-1.57
14,C63U G68A,≤ -4.2
15,A66U C76G C85A C95U U102G A113U C116A A142C,≤ -4.2
16,A66U A89G,≤ -4.2
17,C63U C87G,-4.05
18,G67A U78G G86U C99U G141A,≤ -4.2
19,A66U,-3.46
20,A66C,-4.16
21,A66G,-2.32
22,A64U U148G,≤ -4.2
23,A66U G68C C105A,≤ -4.2
24,C63U C69A C87A G140C,≤ -4.2

row,Variant,polymerase ribozyme fitness (log ratio)
1,G67A G81A A91C A137C U148C,≤ -4.2
2,G68C G83U G133U A137C,≤ -4.2
3,C63G,0.136
4,C63A,0.15
5,C63U,-0.0732
6,C69A C85G A121C,-3.43
7,G67U A89C C96G A106C A119C,≤ -4.2
8,A66G G100C A107C C114U A122C G133C,≤ -4.2
9,G67C C93G C118G A150C,≤ -4.2
10,A66C G71A A73G G83C U151A,≤ -4.2
11,G67C A73U A91G G136A A137G,≤ -4.2
12,C63G A64C C72U C95U C105G A120U G141U,≤ -4.2
13,C69A G71U C85G C103U G117C,-3.28
14,A66G U102A U135C,≤ -4.2
15,C69A U139C G140A U148A,≤ -4.2
16,G68A A91G G128A,≤ -4.2
17,C69A U101G G126A,-0.681
18,C63G G68C,≤ -4.2
19,C63G C69G,-1.75
20,G65A C85U A97U,-2.46
21,C69A A73C G84U U109C C118A,≤ -4.2
22,G62C C93U U135A,-3.41
23,C63U A119U U144C,-0.319
24,C63G U90A C99G U148A,≤ -4.2

row,Variant,polymerase ribozyme fitness (log ratio)
1,G68C A122C,≤ -4.2
2,G62U C96U,-1.14
3,G67U C87U,-3.88
4,A64G A150U,-3.42
5,A66C A91C,≤ -4.2
6,G65C C132G,≤ -4.2
7,C63A C87A A91G,≤ -4.2
8,A66G A73U G81A G92U U111C,≤ -4.2
9,A66G C96A A98G G136U,≤ -4.2
10,C69A A91C A122U A142C,≤ -4.2
11,A64C G88U A150C,≤ -4.2
12,G68A C93U,-4.04
13,A64U C96U C105G G141A A147G,≤ -4.2
14,G62U G94U C96U,-3.88
15,C69A A91G,-3.81
16,C69A A91U,≤ -4.2
17,C63U G86A,-2.99
18,A64G C69G C75A C85A A89U C93A U104G,≤ -4.2
19,C63U C76A C103G U146G U148G,≤ -4.2
20,A64C G65A G84U C116G U139C,≤ -4.2
21,C63G G92U U102C A120G,-1.8
22,A64U G92A G117C U145A,≤ -4.2
23,A66G A89U C93U C95G,≤ -4.2
